Test results as given in patent US20150017162A1 (OMEROS, published 2015).

B1: scFv clone 17N16 (scFv)
scFv: QVQLQQSGPGLVKPSQTLSLTCAISGDSVSSTSAAWNWIRQSPSRGLEWLGRTYYRSKWYNDYAVSVKSRITINPDTSKNQFSLQLNSVTPEDTAVYYCARDPFGVPFDIWGQGTMVTVSSKLSGSASAPKLEEGEFSEARVSYVLTQPPSVSVAPGQTARITCGGNNIGSKNVHWYQQKPGQAPVLVVYDDSDRPSGIPERFSGSNSGNTATLTVSRVEAGDEADYYCQVWDTTTDHVVFGGGTKLTVLAAAGSEQKLISEEDLNSHHHHHH
B2: scFv daughter clone 17N16m_d17N9 (scFv)
chain: QVQLQQSGPGLVKPSQTLSLTCAISGDSVSSTSAAWNWIRQSPSRGLEWLGRTYYRSKWYNDYAVSVKSRITINPDTSKNQFSLQLNSVTPEDTAVYYCARDPFGVPFDIWGQGTMVTVSSSYELIQPPSVSVAPGQTATITCAGDNLGKKRVHWYQQRPGQAPVLVIYDDSDRPSGIPDRFSASNSGNTATLTITRGEAGDEADYYCQVWDIATDHVVFGGGTKLTVLAAAGSEQKLISE
B3: NimoAb101 (antibody, V domains shown)
VH: EVQLVESGGGLVQPGRSLKLSCLVSGFTFSNFGMNWIRQAPGKGLEWVASISSGGTYIYHADTLKGRFTISRENAKNTLYLQMTSLRSEDTALYYCARGPYHSRYIPYLMDAWGQGASVTVSS
VL: DIQMTQSPGSLCASLGETVTIECRASDDIYSNLAWYQQKPGNSPQLLIFDGNRLADGVPSRFSGSGSGTQYSLKMKSLQFEDVASYFCQQYNNYPLTFGSGTKLEIKR
B4: scFv clone 17D20 (scFv)
scFv: QVTLKESGPVLVKPTETLTLTCTVSGFSLSRGKMGVSWIRQPPGKALEWLAHIFSSDEKSYRTSLKSRLTISKDTSKNQVVLTMTNMDPVDTATYYCARIRAGGIDYWGQGTLVTVSSKLSGSASAPKLEEGEFSEARVQPVLTQPPSVSVSPGQTASITCSGDKLGDKFAYWYQQKPGHSPVLVIYQDNKRPSGIPGRFSGSNSGNTATLTISGTQAMDEADYYCQAWDSSTAVFGTGTKVTVLAAAGSEQKLISEEDLNSHHHHHH

Tests used:
human MASP-2 [1] = target: T1, human MASP-2 (human, UniProt O00187 16-686); assay: cell-based or functional assay
human MASP-2 [2] = target: T1, human MASP-2; assay: cell-based or functional assay; remark: listed apart in the source

T1 sequence (O00187 16-686): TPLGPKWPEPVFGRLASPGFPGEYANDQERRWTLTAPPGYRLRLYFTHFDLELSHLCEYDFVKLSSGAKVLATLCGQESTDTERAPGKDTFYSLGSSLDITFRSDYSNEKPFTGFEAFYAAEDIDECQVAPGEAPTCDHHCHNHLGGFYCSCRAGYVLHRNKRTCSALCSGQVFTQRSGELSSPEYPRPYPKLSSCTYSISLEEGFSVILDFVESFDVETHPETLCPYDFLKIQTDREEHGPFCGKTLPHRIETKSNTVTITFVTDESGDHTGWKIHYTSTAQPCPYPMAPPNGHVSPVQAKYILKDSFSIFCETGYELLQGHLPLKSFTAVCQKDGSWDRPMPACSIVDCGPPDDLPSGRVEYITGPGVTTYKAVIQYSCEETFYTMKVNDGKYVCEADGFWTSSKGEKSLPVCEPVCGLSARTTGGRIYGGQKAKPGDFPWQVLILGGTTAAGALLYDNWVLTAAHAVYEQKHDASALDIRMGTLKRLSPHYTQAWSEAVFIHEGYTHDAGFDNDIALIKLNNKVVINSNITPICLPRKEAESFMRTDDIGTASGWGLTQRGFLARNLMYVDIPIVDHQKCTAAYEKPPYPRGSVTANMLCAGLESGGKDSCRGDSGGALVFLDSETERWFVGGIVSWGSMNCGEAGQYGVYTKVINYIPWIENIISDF

Row | Binder | IC50, C3 assay, 1% human serum (average value) (human MASP-2 [1]) | IC50, C4 deposition in full human serum (human MASP-2 [2])
1 | B1 | 68 nM | –
2 | B2 | 48 nM | –
3 | B3 | – | 0.0318 µg/mL
4 | B4 | 38 nM | –
